Results from article PMC6827484 (Methods in molecular biology (Clifton, N.J.), 2019).

Biological target: target antigen of trastuzumab on the target cells (UniProt P04626)
Experiment: flow cytometry on cells

binding result: binds
B1: meditope-enabled trastuzumab (antibody, V domains shown)
VH: not shown
VL: DIQMTQSPILLSASVGDRVTITCRASQDVNTAVAWYQQRTNGSPRLLIYSASFLYSGVPSRFSGSRSGTDFTLTISSLQPEDIADYYCQQHYTTPPTFGAGTKVEIK
